The test has as its target low density lipoprotein receptor-related protein 1 (LRP1) (human (endogenous in 1064Sk human skin fibroblasts)).

B1: CCN1 (CYR61) (natural protein)
chain: TCPAACHCPLEAPKCAPGVGLVRDGCGCCKVCAKQLNEDCSKTQPCDHTKGLECNFGASSTALKGICRAQSEGRPCEYNSRIYQNGESFQPNCKHQCTCIDGAVGCIPLCPQELSLPNLGCPNPRLVKVTGQCCEEWVCDEDSIKDPMEDQDGLLGKELGFDASEVELTRNNELIAVGKGSSLKRLPVFGMEPRILYNPLQGQKCIVQTTSWSQCSKTCGTGISTRVTNDNPECRLVKETRICEVRPCGQPVYSSLKKGKKCSKTKKSPEPVRFTYAGCLSVKKYRPKYCGSCVDGRCCTPQLTRTVKMRFRCEDGETFSKNVMMIQSCKCNYNCPHANEAAFPFYRLFNDIHKFRD
As for B1, the CCN1/TNFα-induced apoptosis of human skin fibroblasts (CCN1 2 µg/ml, TNFα 10 ng/ml, 5 hrs) after pre-incubation with 1 µM recombinant RAP worked out at 60%.

Values taken from PMC3281933.
